This series can be described thus: yeast display, Sf9 membrane polyspecificity reagent, FACS + sequencing; frameworks hold sequencing errors. The method, boiled down: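 Galactose-induced (36–48 hours) yeast carrying a synthetic nanobody display library were exposed to 10% biotinylated, detergent-solubilized Sf9 membrane reagent at 4 °C for 1 hour. FACS followed streptavidin microbead enrichment, using low and high (top ~1%) gates for expression (anti-HA) and reagent binding (streptavidin). Colony PCR, MiSeq 2 × 250 sequencing and CDR-length filtering followed. Labels for polyreactivity reflect the gate of origin.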
For “QVQLVESGGGLVQAGGSLRLSCAASGGIFALNDMGWYRQAPGKERELVAAINGAGTYYADSVKGRFTISRDNAKNTVYLQMNSLKPEETAVYYCARRWLHWEYARTWTRVEYDYWGQGTQVTVSS”, the “polyreactivity (PSR sort gate)” value is “low polyreactivity”.
As to “QVQLVESGGGLVQAGGSLRLSCAASGGIFARNVMGWYRQAPGKERELVAAISGSGGSTYYADSVKGRFTISRDNAKKTVYLQMNSLKPEDTAVYYCAARTPGVSVYKDGYWGQGTQVTVSS”, the “polyreactivity (PSR sort gate)” value is “low polyreactivity”.
With “QVQLVESGGGLVQAGGSLRLSCAASGGIFAVYAMGWYRQAPGKERELVAAITWRGGSTRYADSVKGRFTISRDNAKTTVYLQMNSLKPEDTAVYYCAVRSTGYPSRYYFWGQGTQVTVSS” the entry was “high polyreactivity”.
“QVQLVESGGGLVQAGGSLRLSCAASGGIFDFYAMGWYRPAPGKERELVAAITRSGSSTFYADSVKGRFTLSRDNAKNTVDLQMNSLKPEDTAIYYCAADYSHLPIAWYYYWGQGTQVTVSS”: the “polyreactivity (PSR sort gate)” value was “low polyreactivity”.
With “QVQLVESGGGLVQAGGSLRLSCAASGGIFDFYAMGWYRQAPGKERELVAAITRSGSSTFYADSVKGRFTISRDNAKNTVYLQMNSLKPEDTAVYYCATRPTSDFVKRRVYEWLDYWGQGTQVTVSS”, the “polyreactivity (PSR sort gate)” value is reported as “low polyreactivity”.
For “QVQLVESGGGLVQAGGSLRLSCAASGGIFDRYAMGWYRQAPGKERELVAAITSGGSTNYADSVKGRFTISRDNAKNTVYLQMISLKPEDTAVYYCNADLGILSGVAEGPTFREYDYWGQGTQVTVSS” the value was “low polyreactivity”; for “QVQLVESGGGLVQAGGSLRLSCAASGGIFDTYAMGWYRQAPGKERELVAAISSTGGSSYYADSVKGRFTISRDNAKNTVYLQMNSLKPEDTAVYYCNAVLARFWRYRRWEYDYWGQGTQVTVSS”, “high polyreactivity”; for “QVQLVESGGGLVQAGGSLRLSCAASGGIFDVYAMGWYRQAPGKERELVAAITASGGSTYYADSVKGRFTISRDNAKNTVYLQMNSLKPEDTAVYYCNAYYYYLFHRYDYWGQGTQVTVSS”, “low polyreactivity”.
With “QVQLVESGGGLVQAGGSLRLSCAASGGIFERNDMGWYRQAPGKERELVAGISSVGSTNYADSVKGRFTISRDNAKNTVYLQMNSLKPEDTAVYYCAAPTKREFRYLRYDYWGQGTQVTVSS” the entry was “low polyreactivity”; with “QVQLVESGGGLVQAGGSLRLSCAASGGIFGGYAMGWYRQAPGKAGALVAVITSGGSTYYADSVKGRFTISRDNAKNTVYLQMNSLKPEDTAVYYCAADGHSYSYSTYDYWGQGTQVTVSS”, “low polyreactivity”.
For “QVQLVESGGGLVQAGGSLRLSCAASGGIFGPYAMGWYRQAPGKERELVATITRNGGSTRYADSVKGRFTISRDNAKNTVYLQMNSLKPEDTAVYYCAARGYLDMGYWGQGTQVTVSS” the value was “high polyreactivity”.
With “QVQLVESGGGLVQAGGSLRLSCAASGGIFGQYTMGWYRQAPGKERELVAGISKRGTLTRYADSVKGRFTISRDNAKNTVYLQMNSLKPEYSAVYYCNADYVGFFWEYDYWGQGTQVTVSS”, the “polyreactivity (PSR sort gate)” value is “high polyreactivity”.
With “QVQLVESGGGLVQAGGSLRLSCAASGGIFGSYAMAWYRQAPGKERELVAAISWTGGSTYYADSVKGRFTISRDNAKNTVYLQMNSLKPEDTAVYYCNADTYRRAQLRFNSWGQGTQVTVSS” the entry was “low polyreactivity”; with “QVQLVESGGGLVQAGGSLRLSCAASGGIFGYYVMGWYRQAAGNERELVAVITRGGSTNYADSVKGRFTISRDNAKNTVYLQMNSLKPEDTAVYYCAKDVPYRRVRSEYWGQGTQVTVSS”, “low polyreactivity”; with “QVQLVESGGGLVQAGGSLRLSCAASGGIFIKYAIGWYRPAPGKERELVAAITYSGGSTYYADSVKGRFTISRDNAKNTVYLQMNCLKPEDTAVYYCAADTLRQYDYEYWGQGTQVTVSS”, “high polyreactivity”.
Turning to “QVQLVESGGGLVQAGGSLRLSCAASGGIFKAYAMGWYRQAPGKERELVAVITIGGRTTYADSVKGRFTISRDNAKNTVYLQMNSLKPEDTAVYYCAKTNYNWLSTAEHDYWGQGTQVTVSS”, the “polyreactivity (PSR sort gate)” value was “low polyreactivity”.
For “QVQLVESGGGLVQAGGSLRLSCAASGGIFLDYVMGWYRPATGKQRELVAAISGSGGTNYADSVKGRFTISRDNAKNTVYLQMNSLKPEDTAVYYCAAVGYYSYSYYTKVGVDYWGQGTQVTVSS” the value was “high polyreactivity”.
For “QVQLVESGGGLVQAGGSLRLSCAASGGIFLVYTMGWYRQAPGKEREMVAAITSGGSTKYADSVKGRFTISRDNAKNTVYFQMNSLKPEDTAVYYCAAGVQYARYQARYFYWGQGTPVTVSS” the value was “high polyreactivity”; for “QVQLVESGGGLVQAGGSLRLSCAASGGIFNRYAMGWYRPAPGKERELVAGITRSGGSTSYADSVKGRFTISRDNAKNTVYLQMNSLKPEDTAVYYCNKVAYYASSSYYRFGAYGYWGQGTQVTVSS”, “high polyreactivity”.
With “QVQLVESGGGLVQAGGSLRLSCAASGGIFPHYVMGWYRQAPGKERELVAAITWSGGRTYYADSVKGRFTISRDNAKNTVYLQMNSMKPEDTAVYYCAADPFYLTKSGGWGDYWGQGTQVTVSS” the entry was “low polyreactivity”; with “QVQLVESGGGLVQAGGSLRLSCAASGGIFPKNAMGWYRQAPGKERELVAAINWSGGTTNYADSVKGRFTISRDNAKNTVYLQMNSLKPEDTAVYYCAKQGLWIFVVVEMDYWGQGTQVNVSS”, “low polyreactivity”; with “QVQLVESGGGLVQAGGSLRLSCAASGGIFPQYAMGWYRQAPGKERQLVAAISRRGGRTYYADSVKGRFTISRDNAKNTDYLQMNSLKPEDTAVYYCNAGGSSGYDYWGQGTQVTVSS”, “high polyreactivity”.
“QVQLVESGGGLVQAGGSLRLSCAASGGIFPYYAMGWYRQAPGKERELVADISSGGSTYYADSVKGRFTISRDNAKNTVYLQMNSLKPEDTAVYYCAADAGQYFTYSGDDNHDYWGQGTQVTVSS”: the “polyreactivity (PSR sort gate)” value is “low polyreactivity”.
For “QVQLVESGGGLVQAGGSLRLSCAASGGIFRHNAMGWYRQAPGKERELVAAISRSGGNTYYADSVKGRFTISRDNAKNTVYLQMNSLKPEDTAVYYCNKIEYDSWADHVYWGQGTQVTVSS” the value was “low polyreactivity”.
With “QVQLVESGGGLVQAGGSLRLSCAASGGIFRYAMGWYRQAPGKEREFVAAITTRGGSTYYADSVKARFTISRDNAKNTVYLQMNSLKPEDTAVYYCAARRYSGRNKYDYWGQGTQLTVSS” the entry was “high polyreactivity”.
For “QVQLVESGGGLVQAGGSLRLSCAASGGIFRYYALGWYRPAPGKERELVAASSRSGDSTYYADSVKGRFTISRDNAKNTVYLQMNSLKPEDTAVYYCAKDNDDVHLVHLDYNSDRYGYWGPGTQVTVSS” the value was “high polyreactivity”; for “QVQLVESGGGLVQAGGSLRLSCAASGGIFRYYAMGWYRQAPGKERELVATITSGSITNYADSVKGRFTISRDNAKNTVYLQMNSLKPEDTAVYYCAALGAFPSLEFDYWGQGTQVTVSS”, “low polyreactivity”; for “QVQLVESGGGLVQAGGSLRLSCAASGGIFSGNDMGWYRQAPGKERELVATITYSGGTTYYADSVKGRFTISRDNAKNTVYLQMNSLKPEDTAVYYCAADEYGPHTFSPEYDSWGQGTQVTVSS”, “low polyreactivity”.
For “QVQLVESGGGLVQAGGSLRLSCAASGGIFSGYAMGWYRQAPGKARELVAAISRRGTRTYYADSVKGRFTISRDNAKNTVDLQKNSLTPEDTAVYYCNAELDSLGTYDYWGQGTQVTVSS”, the “polyreactivity (PSR sort gate)” value was “high polyreactivity”.
With “QVQLVESGGGLVQAGGSLRLSCAASGGIFSPNAMGWYRQAPGKERELVAAISSNGGSTNYADSVKGRFTISRDHAKNTVYLQMNSLKPEDTAVYYCAGLQKRRSYWRPFYWGQGTQVTVSS”, the “polyreactivity (PSR sort gate)” value was “low polyreactivity”.
For “QVQLVESGGGLVQAGGSLRLSCAASGGIFSPNAMGWYRQAPGKERELVAAISSNGGSTNYADSVKGRFTISRDNAKNTVYLQMNSLKPEDTAVFYCAGLQLRRSYRRPFYWGQGTQVTVSS” the value was “low polyreactivity”; for “QVQLVESGGGLVQAGGSLRLSCAASGGIFSQYAMGWYRQAPGKERELVAAINSGVGTNYADSVKGRFTISRDNAKNTVFLQMNSLKPEDTAVYYCAATDDRLWTFDVASYRNDYWGQGTQVTVSS”, “low polyreactivity”.
With “QVQLVESGGGLVQAGGSLRLSCAASGGIFSVYAMGWYRQPPGKERELVASITVSGGSTSYADSVKGRFTISRDTAKNTVYLQMNSLKPEDTAVYYCNTDFGQAHTLSWYEDMDYWGQGTQVTVSS” the entry was “low polyreactivity”.
Regarding “QVQLVESGGGLVQAGGSLRLSCAASGGIFSYNALGWYRQAPGKERELVAAISYSSTRTYYADSVKGRFTISRDNAKKTVYLQMNSLKREDTAVYYCAARLSRTRHTSDYWGQGTQVTVSS”, the “polyreactivity (PSR sort gate)” value is recorded as “high polyreactivity”.
With “QVQLVESGGGLVQAGGSLRLSCAASGGIFTNNAMGWYRQAPGKERELVAAITGSGASTYYADSVKGRFTISRDNAKNTVYLQMNSLKPEDTAVYYCAALSKYYAPLSRYDYWGQGTQVTVSS” the entry was “high polyreactivity”; with “QVQLVESGGGLVQAGGSLRLSCAASGGIFTYNAMGWYIQAPGKERELVAAITWNGGRTYYADSVKGRFTISRDTAKNTVYLQMNSLKPEDTAVYYCAARSPVKRQSRKQYYYWGQGTQVTVSS”, “high polyreactivity”.
With “QVQLVESGGGLVQAGGSLRLSCAASGGIFVLNAMGWYRQAPGKERELVATITSSGGSTYYADSVKGRFTISRDNAKNTVYLQMNSLKPEDTAVYYCNADWYLWSTFAQGYGYWGQGTQVTVSS” the entry was “high polyreactivity”.
With “QVQLVESGGGLVQAGGSLRLSCAASGGIFWAYAMGWYRQAPGKERELVAAITTLGTSTYYADSVKGRFTISRDNAKNTVYLQMNSLKPEDTGVYYCAAVDPYSYSFDYWGQGTQVTVSS” the entry was “high polyreactivity”; with “QVQLVESGGGLVQAGGSLRLSCAASGGIFWYYTRGWYRQAPGKERELVATISSGGRTYYADSVKGRFTISRDNAKNTVYLQMNSLKPEDTAVYYCAKSYRRRQGYSYWGQGTQVTVSS”, “high polyreactivity”; with “QVQLVESGGGLVQAGGSLRLSCAASGGIFYHNAMGWYRQAPGKERELVAAISGRGGRTYYADSVKGRFTISRDNAKNTVYLQMNSLKPEDTAVYYCDADQYKDFDYWGQGTQVTVSS”, “low polyreactivity”.

Values taken from the nanobody polyreactivity screen of Harvey et al. (2022).
